Values joined by “and” are separate entries in the source; they are usually repeats but may differ in a detail not shown here. Equal values may be shown once. “Also recorded” adds a separate entry of the source.
B1: iduronidase: recombinant human α-L-iduronidase, lysosomal hydrolase with mannose 6-phosphate marker (protein, UniProt P35475 28-653, looked up)
Alpha-L-iduronidase: APHLVHVDAARALWPLRRFWRSTGFCPPLPHSQADQYVLSWDQQLNLAYVGAVPHRGIKQVRTHWLLELVTTRGSTGRGLSYNFTHLDGYLDLLRENQLLPGFELMGSASGHFTDFEDKQQVFEWKDLVSSLARRYIGRYGLAHVSKWNFETWNEPDHHDFDNVSMTMQGFLNYYDACSEGLRAASPALRLGGPGDSFHTPPRSPLSWGLLRHCHDGTNFFTGEAGVRLDYISLHRKGARSSISILEQEKVVAQQIRQLFPKFADTPIYNDEADPLVGWSLPQPWRADVTYAAMVVKVIAQHQNLLLANTTSAFPYALLSNDNAFLSYHPHPFAQRTLTARFQVNNTRPPHVQLLRKPVLTAMGLLALLDEEQLWAEVSQAGTVLDSNHTVGVLASAHRPQGPADAWRAAVLIYASDDTRAHPNRSVAVTLRLRGVPPGPGLVYVTRYLDNGLCSPDGEWRRLGRPVFPTAEQFRRMRAAEDPVAAAPRPLPAGGRLTLRPALRLPSLLLVHVCARPEKPPGQVTRLRALPLTQGQLVLVWSDEHVGSKCLWTYEIQFSQDGKAYTPVSRKPSTFNLFVFSPDTGAVSGSYRVRALDYWARPGPFSDPVPYLEVPVPRGPPSPGNP
B2: dephospho iduronidase: recombinant iduronidase dephosphorylated by incubation with acid phosphatase bound to beads (protein, UniProt P35475 28-653, looked up)
Alpha-L-iduronidase: APHLVHVDAARALWPLRRFWRSTGFCPPLPHSQADQYVLSWDQQLNLAYVGAVPHRGIKQVRTHWLLELVTTRGSTGRGLSYNFTHLDGYLDLLRENQLLPGFELMGSASGHFTDFEDKQQVFEWKDLVSSLARRYIGRYGLAHVSKWNFETWNEPDHHDFDNVSMTMQGFLNYYDACSEGLRAASPALRLGGPGDSFHTPPRSPLSWGLLRHCHDGTNFFTGEAGVRLDYISLHRKGARSSISILEQEKVVAQQIRQLFPKFADTPIYNDEADPLVGWSLPQPWRADVTYAAMVVKVIAQHQNLLLANTTSAFPYALLSNDNAFLSYHPHPFAQRTLTARFQVNNTRPPHVQLLRKPVLTAMGLLALLDEEQLWAEVSQAGTVLDSNHTVGVLASAHRPQGPADAWRAAVLIYASDDTRAHPNRSVAVTLRLRGVPPGPGLVYVTRYLDNGLCSPDGEWRRLGRPVFPTAEQFRRMRAAEDPVAAAPRPLPAGGRLTLRPALRLPSLLLVHVCARPEKPPGQVTRLRALPLTQGQLVLVWSDEHVGSKCLWTYEIQFSQDGKAYTPVSRKPSTFNLFVFSPDTGAVSGSYRVRALDYWARPGPFSDPVPYLEVPVPRGPPSPGNP
modifications: dephosphorylated
B3: ovalbumin: non-phosphorylated protein antigen with mannose terminated N-linked oligosaccharides (protein, UniProt P01012 2-386, looked up)
Ovalbumin: GSIGAASMEFCFDVFKELKVHHANENIFYCPIAIMSALAMVYLGAKDSTRTQINKVVRFDKLPGFGDSIEAQCGTSVNVHSSLRDILNQITKPNDVYSFSLASRLYAEERYPILPEYLQCVKELYRGGLEPINFQTAADQARELINSWVESQTNGIIRNVLQPSSVDSQTAMVLVNAIVFKGLWEKAFKDEDTQAMPFRVTEQESKPVQMMYQIGLFRVASMASEKMKILELPFASGTMSMLVLLPDEVSGLEQLESIINFEKLTEWTSSNVMEERKIKVYLPRMKMEEKYNLTSVLMAMGITDVFSSSANLSGISSAESLKISQAVHAAHAEINEAGREVVGSAEAGVDAASVSEEFRADHPFLFCIKHIATNAVLFFGRCVSP

Tests used:
Hurler fibroblasts = experiment: Half maximal uptake (Kuptake) of iduronidase into Hurler fibroblasts; assay type: cell-based
Text: It is especially preferred that the receptor has a Kuptake for the ligand of at least about 10^−6 M, usually at least about 10^−7 M more usually at least about 10^−8 M and preferably at least about 10^−9 M where Kuptake represents the concentration of ligand at which half maximal uptake occurs in a cell. Receptors of interest include the transferrin receptor, the melanotransferrin receptor, mannose 6-phosphate receptor, growth hormone receptor, and the like. Cognate ligands include: insulin-like growth factor II (IGF2), transferrin, growth hormone, insulin, and binding fragments thereof, particularly polypeptides having specific and high affinity receptors on diverse cell types. Single chain antibodies and binding agents from randomized phage display systems could be used if they have adequate affinity for the receptor. To determine the Kuptake of a ligand and receptor combination, methods known in the art may be used, for example see Kakkis et al. (1994) Protein Expr Purif 5(3):225-32 for assays used to determine the Kuptake of alpha-L-iduronidase. The disclosed methods are readily adapted to any ligand and receptor combination. Such assays are also useful in verifying the uptake of toleragens comprising exogenous high uptake moieties.
Enzyme Infusions. […] Animals monitored for an anaphylactic reaction. […]

[1] = test system: IgA and IgE antibodies to iduronidase; experiment: ELISA for IgG, IgA and IgE antibodies to iduronidase in canine sera; assay type: in vivo; details: before vs after 12 weekly infusions with iduronidase
Text: The tolerance regimen in canine prevents the induction of IgG as manifested by a decrease in total IgG response against iduronidase as compared to the IgG response observed in non-tolerant canines. […] Analyses of the immune sera of canines that were either tolerant (dogs […] and SA) or canine controls (dogs RU and UM) that had not received the tolerizing regimen were studied for the presence of IgG, IgA and IgE antibodies to iduronidase.

[2] = dog, in vivo
Description: Canines were administered 14,000 U/kg/week α-L-iduronidase or higher dose as dose was ramped up, in a 50 mL infusion in saline containing 1 mg/mL canine albumin, 10 mM NaPO4, pH 5.8. Administered intravenously over 2 hours (1st hour 3,000 U/kg/hr; 2nd hour 11,000 U/kg/hr, or a higher rate in the 2nd hour depending on the dose). Animals were monitored for anaphylactic reaction.

[3] = test system: antibody titer to iduronidase; experiment: ELISA antibody titer to iduronidase in canines on weekly iduronidase infusions, with or without tolerance regimens
Description: Normal and MPS I canines were obtained from the MPS I canine colony at Harbor-UCLA. The dogs are a cross between beagles and Plott hounds and average 12-20 kg in weight. The canines were under 2 years of age and at least 4 months of age for these experiments.
Enzyme Infusions. […] For toleragenic infusions, 14,000 U/kg/week α-L-iduronidase in 50 mL infusion in saline with 1 mg/mL canine albumin, and 10 mM NaPO4 was administered intravenously over 2 hours (1st hour 3,000 U/kg/hr; 2nd hour 11,000 U/kg/hr). Animals monitored for an anaphylactic reaction.
Canines were initiated on immunosuppressive drugs at day 0, equivalent to 18 days prior to the first enzyme challenge. If scheduled, the canines received monoclonal antibodies by intravenous infusion (2-5 mg) just prior to ITI. On day 4, the dogs received, if scheduled, an intrathymic injection of iduronidase at 1 mg/kg. Two weeks later, the dogs were begun on a weekly schedule of iduronidase enzyme infusions consisting of a weekly intravenous infusion of 14,000 U/kg (0.056 mg/kg/wk) of human recombinant iduronidase.
All canines received 0.056 mg/kg/week rh iduronidase intravenous challenges. Pre treatment ELISA values represent serum antibody levels prior to first antigen challenge with iduronidase.
Iduronidase was the same high uptake iduronidase as described above. The canines were challenged with 0.58 mg/kg of enzyme administered intravenously on a weekly basis for 3-6 doses.

ovalbumin = experiment: Attempted induction of tolerance to ovalbumin; assay type: in vivo; details: ovalbumin with mannose terminated N-linked oligosaccharides
Text: The titer in the tolerance dogs stayed low for several months and was studied in RO and SA for 6 months of weekly infusions (FIG. 2).

| Molecule | Kuptake (enzyme concentration at half maximal uptake) (Hurler fibroblasts) | increase in IgA or IgE titer to iduronidase [1] [fold] | anaphylactic / anaphylactoid reaction during the infusion [2] | mean antibody titer after 12 weekly infusions of rhIDU ([3]; ELISA, eight normal and MPS I canines vs eight control canines) [OD units/μl serum] | Antibody levels at week 15 ([3]; MPS I canines, iduronidase raised stepwise to 0.500 mg/kg/week at week 15) [OD Units] | titer on reexposure (anamnestic response) ([3]; canine Nitro, after nearly 6 months hiatus, 0.5 mg/kg/wk infusions) | further increase in antibody titer on higher therapeutic doses ([3]; immune responsive canines) | induction in antibody titer on rechallenge ([3]; non-tolerant canine RU, after 2 doses of enzyme following 4.5 month hiatus) [fold] | titers by week 14 of enzyme therapy ([3]; two MPS I canines previously treated with 0.5 mg/kg/wk, no tolerance regimen, 0.5 mg/kg) | mean antibody titer on higher therapeutic doses of iduronidase ([3]; up to 6 months, n=6 tolerant, n=2 immune responsive) [OD/μl serum] | tolerance induction with this form of the toleragen ([3]; canines, applied with the tolerance regimen (CsA+Aza), listed as dephosphorylated rhIDU) | induction of tolerance to ovalbumin (ovalbumin) |
| --- | --- | --- | --- | --- | --- | --- | --- | --- | --- | --- | --- | --- |
| B1 | about 1 nanomolar | ~10 | serious clinical anaphylactic reaction | 149 | > 500 | ≥ 400 | 2-3 fold | > 20 | 1800 and 2000 | 369 | – | – |
| B2 | too low to be calculated | – | – | – | – | – | – | – | – | – | did not allow induction of the tolerant state | – |
| B3 | – | – | – | – | – | – | – | – | – | – | – | did not succeed; also recorded: could not |
